In article PMC2914181 (Biochemical and biophysical research communications, 2009):

Target: the molecule itself
Test: SEC

B1: Campylobacter jejuni β-hydroxyacyl-ACP dehydratase (FabZ) (enzyme, Campylobacter jejuni strain 81-176, UniProt Q9PIM2 1-146, looked up)
chain: MIDVMQIQEILPHRYPFLLVDKITELKVKEVVLGYKNISISDHVFMGHFPGHPIYPGVLILEGMAQTGGVLAFESMEDKVDPKSKVVYFTGIDGAKFRNPVRPGDRLDYEMSVVKNRGNMWIFKGQAFVDGNLVAEAELKAMIVDK
stoichiometry N: 6
